This series in a line: protein stability index of a GFP-peptide fusion (GPS, HEK-293T) (PSI 1-6); higher = more stable.
[1] abbreviates: treatment: DMSO, c terminus: a fixed tail appended.
Where [2] appears, read: treatment: MLN4924 1 uM, 8 h, c terminus: a fixed tail appended.

± gives the standard deviation.
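Further: 24-mer peptide tiles fused after GFP, lentivirally expressed, FACS-sorted into six equal bins by GFP/DsRed ratio, decoded by Illumina sequencing, PSI is the read-weighted mean bin number.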

As to VSISIISSTSGGSGYGFRPSMVSG [KRT71], the protein stability index reads like this: under setting [1], 2.84 ± 0.52; under setting [2], 3.01 ± 0.93.

For LRRHAGLLDGLARRVGILGEELAD [SCARA5], the protein stability index worked out at 3.37 ± 0.17 under setting [1] and 3.34 ± 0.18 under setting [2].

As for HLNETVKAPDIECVLRCSVLEIEQ [FEM1B], the protein stability index by setting is: under setting [1], 3.07 ± 0.49; under setting [2], 3.13 ± 0.44.

With AVPAAATRTTSFKGTSPSSKYVKL [KCTD10], the protein stability index was found to be 3.87 ± 0.2 under setting [1] and 3.99 ± 0.28 under setting [2].

Consider LEASVQDDAGTSGGPSSPPSDPPA [C2CD2L], for which the protein stability index amounted to 5.53 ± 0.31 under setting [1] and 5.66 ± 0.12 under setting [2].

Regarding IKEVQKGGPADLAGLEDEDVIIEV [PDZK1], the protein stability index reads like this: under setting [1], 2.22 ± 0.27; under setting [2], 2.49 ± 0.12.

Regarding AKDLPCDSKPESALGAPSKSPSSP [TBX5], the protein stability index was found to be 5.49 ± 0.26 under setting [1] and 5.54 ± 0.2 under setting [2].

Regarding ADGSPPLLPPGEPPLLGTFPRDHT [ANKRD40], the protein stability index by setting is: under setting [1], 4.8 ± 0.28; under setting [2], 4.49 ± 0.21.

Regarding RHWCMKHDELLAEHIKSLLIKNNS [INTS3], the protein stability index reads like this: under setting [1], 2.29 ± 0.12; under setting [2], 2.38 ± 0.33.

In the case of NNGIFQINSRRWCSNLTPNVPNVC [SPACA3], the protein stability index amounted to 2.6 ± 0.28 under setting [1] and 2.63 ± 0.25 under setting [2].

In the case of GLELALACDIRVAASSAKMGLVET [AUH], the protein stability index by setting is: under setting [1], 2.37 ± 0.77; under setting [2], 2.34 ± 0.18.

AGVGLSGGAAGAGWCIFVYNLSPE [ELAVL3]: the protein stability index is 3.13 ± 0.71 under setting [1] and 2.71 ± 0.26 under setting [2].

For NNEEQRSGLIYLTNHIAPHARNGL [IKZF1], the protein stability index reads like this: under setting [1], 3.34 ± 0.33; under setting [2], 3.52 ± 0.2.

SDLNEVPVKELAALPKATILDLSC [LRRC59]: the protein stability index reads like this: under setting [1], 3.96 ± 0.052; under setting [2], 4.01 ± 0.3.

As to FYFENLWSRNSKPVHTTILNPHIH [CAMK2A], the protein stability index stood at 2.33 ± 0.51 under setting [1] and 2.5 ± 0.45 under setting [2].

As for YIAAFLHVLLPVALEFQPQLVLVA [HDAC6], the protein stability index by setting is: under setting [1], 3.25 ± 0.84; under setting [2], 3.14 ± 0.41.

For the sequence VAPADVRRLLSYCKGRDHGVLDAL [ZSWIM9], the protein stability index was 2.46 ± 0.28 under setting [1] and 2.68 ± 0.46 under setting [2].

For the sequence GFTNKQLQSGQEYVFFVLAVMEHA [PTPRD], the protein stability index by setting is: under setting [1], 2.95 ± 0.76; under setting [2], 2.39 ± 0.79.

Regarding GPWLEWEIMLQYCFPRLDINVSKG [PRIM1], the protein stability index under setting [1] amounted to 2.4 ± 0.19 and the protein stability index under setting [2] stood at 2.88 ± 0.94.

In the case of RNSTPPSLARNPAPGVLTNKRKTY [ZC2HC1A], the protein stability index runs as follows: under setting [1], 4.86 ± 0.21; under setting [2], 4.68 ± 0.17.

For the sequence KTEITDLRRTMQELEIELQSQLSM [KRT15], the protein stability index under setting [1] turned out to be 3.79 ± 0.39 and the protein stability index under setting [2] worked out at 3.5 ± 0.24.

Consider QIAQLEASLAAAKKQLADETLLKV [LMNB1], for which the protein stability index runs as follows: under setting [1], 2.72 ± 0.65; under setting [2], 2.8 ± 0.46.

Regarding TMLTVIEQPVPPTPATPEDPAPLW [EMID1], the protein stability index is 3.76 ± 0.28 under setting [1] and 3.77 ± 0.23 under setting [2].

On to WKCKNARGQVGLVPKNYVVVLSDG [NCK2], for which the protein stability index came to 2.15 ± 0.26 under setting [1] and 2.31 ± 0.45 under setting [2].

Consider ERLVVLDYIIRNTDRGNDNWLIKY [PI4K2A], for which the protein stability index under setting [1] is 2.2 ± 0.65 and the protein stability index under setting [2] turned out to be 2.49 ± 0.65.

For the sequence AYHVPNRTLASGRLLSYRGERVAA [DNAAF3], the protein stability index worked out at 3.31 ± 0.23 under setting [1] and 3.4 ± 0.14 under setting [2].

Consider KMDFKTNILLKNLVTIARKASLWQ [TRIM43], for which the protein stability index reads like this: under setting [1], 2.7 ± 0.49; under setting [2], 2.62 ± 0.92.

For the sequence LKPNNLSCDLPEERYRHEIAHDGQ [KLHDC10], the protein stability index is 4.8 ± 0.2 under setting [1] and 4.8 ± 0.074 under setting [2].

As for LQCDAVNLAFGRRCEELEDARYKL [TEKT4], the protein stability index came to 3.74 ± 0.26 under setting [1] and 3.64 ± 0.31 under setting [2].

Regarding RYPELDTPKLDCFLSGMEAAPRTL [TBX6], the protein stability index is 3.5 ± 0.27 under setting [1] and 3.58 ± 0.2 under setting [2].

IDEIISLESSYNDEMLSYLPGGTT [TFE3] registered a protein stability index under setting [1] of 3.96 ± 0.16 and a protein stability index under setting [2] of 3.88 ± 0.32.

With AFAFQNTFPHSISAKNTSHPGSGT [SASS6], the protein stability index is, setting by setting: under setting [1], 3.36 ± 0.39; under setting [2], 3.45 ± 0.45.

Take DEEVSSLTCDALTELLAKITNTDV [CCND2]: the protein stability index by setting is: under setting [1], 4.04 ± 0.44; under setting [2], 4.28 ± 0.078.

On to TRRKKGKKDKDISKEKDTQNQNIT [KMT2E], for which the protein stability index reads like this: under setting [1], 4.75 ± 0.12; under setting [2], 5.07 ± 0.1.

Take ANCIVHRDLKPENILVTSGGTVKL [CDK4]: the protein stability index amounted to 3.23 ± 0.15 under setting [1] and 3.5 ± 0.32 under setting [2].

Turning to ASEFLEQSMSQTRELLLDGGYLQR [RSPH3], the protein stability index runs as follows: under setting [1], 3.58 ± 0.43; under setting [2], 3.55 ± 0.51.

In turn, HVLIHNTLQQLQAALRLAPAPALP [SERTAD3] displayed a protein stability index under setting [1] of 2.51 ± 0.47 and a protein stability index under setting [2] of 2.55 ± 0.2.

Consider GLHVQHMGTSHGITRPSPRRSNSP [CCDC6], for which the protein stability index is 4.51 ± 0.17 under setting [1] and 4.57 ± 0.082 under setting [2].

Take EDQYIFIHDALLEAVTCGNTEVPA [PTPRD]: the protein stability index was determined as 3.1 ± 0.32 under setting [1] and 3.01 ± 0.31 under setting [2].

On to DASSSTSTSSSFPSSFPSSSSSSS [MAGEA10], for which the protein stability index reads like this: under setting [1], 5.07 ± 0.37; under setting [2], 5.23 ± 0.085.

In the case of ALNEQACRNGSSIQIAFEEVPQLP [C2CD2L], the protein stability index is, setting by setting: under setting [1], 3.83 ± 0.38; under setting [2], 4.02 ± 0.12.

On to TFQEPLYPALRLWEGAISIPRLP [TRIM14], for which the protein stability index (treatment: DMSO, c terminus: native) stood at 2.65 ± 0.62 and the protein stability index (treatment: MLN4924 1 uM, 8 h, c terminus: native) amounted to 2.67 ± 0.66.

On to KMTPVKNYQAHQSRVTMILFVLEL [WDFY2], for which the protein stability index was 3.19 ± 0.39 under setting [1] and 2.88 ± 0.5 under setting [2].

Turning to RQPAFDTFDGSLFAVFPSLNEEQT [ETS2], the protein stability index is 3.89 ± 0.2 under setting [1] and 4.04 ± 0.31 under setting [2].

In the case of ESDSCVSFEAPLTPLIQQRARDSP [PSD2], the protein stability index runs as follows: under setting [1], 5.02 ± 0.16; under setting [2], 4.92 ± 0.24.

In the case of VYRAELVGELNGYLRDSSPAPCAD [PWWP2B], the protein stability index reads like this: under setting [1], 3.31 ± 0.21; under setting [2], 3.52 ± 0.27.

DDDDHDDHEDNDKMNDSEGMDPER [NOL4L]: the protein stability index by setting is: under setting [1], 5.54 ± 0.29; under setting [2], 5.54 ± 0.23.

GHNSPLYKRQEESGAAASLNVDAA [CHIT1]: the protein stability index reads like this: under setting [1], 5.19 ± 0.19; under setting [2], 5.11 ± 0.22.

Turning to KQCIVAHPVNPPYYIPLVELVPHP [CRYL1], the protein stability index under setting [1] stood at 2.33 ± 0.17 and the protein stability index under setting [2] amounted to 2.47 ± 0.32.

As to LLETDAGPAASEGAEQPPDLHCVL [GADD45A], the protein stability index is, setting by setting: under setting [1], 4.82 ± 0.29; under setting [2], 4.78 ± 0.18.

For PVPPGWNPNSSSGKGSGGNAGSYI [DLX1], the protein stability index turned out to be 3.86 ± 0.21 under setting [1] and 3.93 ± 0.24 under setting [2].

Consider CGSRRERCGYRLVRRQRSADEQLH [ESR2], for which the protein stability index is, setting by setting: under setting [1], 2.79 ± 0.36; under setting [2], 2.93 ± 0.29.

As to HDAQVRLYKEELEQTYHAKLENAR [LMNB1], the protein stability index is, setting by setting: under setting [1], 3.99 ± 0.34; under setting [2], 4.13 ± 0.14.

As for SWSQYEMPEFSSDSTMRILSNLVQ [RTP4], the protein stability index is, setting by setting: under setting [1], 2.48 ± 0.24; under setting [2], 2.59 ± 0.3.

As to DSRLMCSSVQKALFEEEDHVKKLQ [CCDC3], the protein stability index is, setting by setting: under setting [1], 4.71 ± 0.16; under setting [2], 4.74 ± 0.25.

As to DVVALLINHGAEVTCKDKKGYTPL [ANKRD44], the protein stability index by setting is: under setting [1], 2.33 ± 0.55; under setting [2], 2.27 ± 0.48.

Consider VILHLKEDQTEYLEERRVKEVVKK [HSP90AB1], for which the protein stability index amounted to 2.57 ± 0.25 under setting [1] and 2.77 ± 0.36 under setting [2].

On to LTAHLLPPRQALGSLCSPWAAPRV [YPEL3], for which the protein stability index runs as follows: under setting [1], 2.56 ± 0.36; under setting [2], 2.45 ± 0.36.

For the sequence RLVDAVLGAEIRNGMAIIRPPGHH [HDAC6], the protein stability index by setting is: under setting [1], 1.96 ± 0.17; under setting [2], 2.02 ± 0.35.

Sequence PKPADFRNPGPGRHRLITQVYLSH [INTS4] came in with a protein stability index under setting [1] of 2.59 ± 0.17 and a protein stability index under setting [2] of 2.57 ± 0.24.

EPPEEPEQCPVIDSQAPAGSLDLV [SPDEF]: the protein stability index stood at 5.37 ± 0.17 under setting [1] and 5.51 ± 0.18 under setting [2].

As to HHLDEDEERERIERVRRIHIKRPD [KCTD10], the protein stability index is, setting by setting: under setting [1], 5.09 ± 0.34; under setting [2], 5.19 ± 0.076.

NQVSSNSWGIAGETELALVKESGE [DLC1]: the protein stability index is, setting by setting: under setting [1], 5.17 ± 0.41; under setting [2], 5.23 ± 0.2.

As to LLHGLNLLWRKQLFCDVTLTAQGQ [KLHL14], the protein stability index was 3.3 ± 0.17 under setting [1] and 2.88 ± 0.53 under setting [2].

Turning to KKLRLNGGRNPYEGRVEVLVERNG [LOXL2], the protein stability index reads like this: under setting [1], 3.05 ± 0.13; under setting [2], 4.01 ± 0.18.

For KSSSVDSELTSLCQSVLEDFNLCL [SMG5], the protein stability index reads like this: under setting [1], 2.95 ± 0.25; under setting [2], 2.97 ± 0.3.

Take LELKFVSSLRRQFEFSVDSFQIVL [TENT5D]: the protein stability index turned out to be 3.41 ± 0.5 under setting [1] and 2.91 ± 0.23 under setting [2].

For the sequence ATAASSSASSPASVGDPCGGAICG [SLC25A25], the protein stability index runs as follows: under setting [1], 4.9 ± 0.34; under setting [2], 4.85 ± 0.11.

For the sequence HDTKDQSPSRAPGLRQRASNKVQD [HMOX1], the protein stability index runs as follows: under setting [1], 5.58 ± 0.24; under setting [2], 5.29 ± 0.14.

Turning to QPRKKYVQRKSDFDQTVFQEVFEP [NETO1], the protein stability index by setting is: under setting [1], 4.14 ± 0.22; under setting [2], 4.26 ± 0.2.

Consider MERRRLRGSIQSRYISMSVWTSPR [PRAME], for which the protein stability index worked out at 2.64 ± 0.28 under setting [1] and 2.73 ± 0.38 under setting [2].

For the sequence IERSKIVSTMRCKTRQKSEKQMEE [PPEF2], the protein stability index runs as follows: under setting [1], 4.5 ± 0.21; under setting [2], 4.5 ± 0.1.

These data come from the supplement of paper PMC10567573.
